B1: ALDH8A1 (parent)
chain: FTGSQPTAERITQLSAPHCKKLSL

Variants of: B1
Test: protein stability index of a GFP-peptide fusion (GPS, HEK-293T) (PSI 1-6); higher = more stable
Details: c terminus: a fixed tail appended
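Also: lentivirally expressed fusions sorted by FACS into six bins by GFP to DsRed ratio, PSI derived from sequencing read proportions per bin multiplied by bin number.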

| Variant | protein stability index |
| --- | --- |
| FTGSQPTAERITQLDAPHCKKLSL [S15D] | 2.18 |
| FTGSQPTAERITQLNAPHCKKLSL [S15N] | 1.91 |
| FTGSQPTAERITQLMAPHCKKLSL [S15M] | 2.13 |
| FTGSQPTAERITQLLAPHCKKLSL [S15L] | 2.87 |
| FTGSQPTAERITQLCAPHCKKLSL [S15C] | 2.34 |
| FTGSQPTAERITQLRAPHCKKLSL [S15R] | 1.71 |
| FTGSQPTAERITQLFAPHCKKLSL [S15F] | 3.03 |
| FTGSQPTAERITQLAAPHCKKLSL [S15A] | 2.39 |
| FTGSQPTAERITQLGAPHCKKLSL [S15G] | 2.5 |
| FTGSQPTAERITQLWAPHCKKLSL [S15W] | 2.39 |
| FTGSQPTAERITQLKAPHCKKLSL [S15K] | 1.84 |
| FTGSQPTAERITQLYAPHCKKLSL [S15Y] | 3.69 |
| FTGSQPTAERITQLHAPHCKKLSL [S15H] | 1.85 |
| FTGSQPTAERITQLTAPHCKKLSL [S15T] | 2.25 |
| FTGSQPTAERITQLEAPHCKKLSL [S15E] | 2.37 |
| FTGSQPTAERITQLVAPHCKKLSL [S15V] | 2.36 |
| FTGSQPTAERITQLPAPHCKKLSL [S15P] | 2.32 |
| FTGSQPTAERITQLIAPHCKKLSL [S15I] | 2.28 |
| FTGSQPTAERITQLQAPHCKKLSL [S15Q] | 2.09 |
| FTGSQPTAERITQLSWPHCKKLSL [A16W] | 1.45 |
| FTGSQPTAERITQLSTPHCKKLSL [A16T] | 2.63 |
| FTGSQPTAERITQLSKPHCKKLSL [A16K] | 2.03 |
| FTGSQPTAERITQLSCPHCKKLSL [A16C] | 1.55 |
| FTGSQPTAERITQLSQPHCKKLSL [A16Q] | 2.1 |

| Variant | protein stability index |
| --- | --- |
| FTGSQPTAERITQLSVPHCKKLSL [A16V] | 2.27 |
| FTGSQPTAERITQLSLPHCKKLSL [A16L] | 2.17 |
| FTGSQPTAERITQLSSPHCKKLSL [A16S] | 2.17 |
| FTGSQPTAERITQLSEPHCKKLSL [A16E] | 2.26 |
| FTGSQPTAERITQLSMPHCKKLSL [A16M] | 1.91 |
| FTGSQPTAERITQLSYPHCKKLSL [A16Y] | 2.05 |
| FTGSQPTAERITQLSNPHCKKLSL [A16N] | 2.58 |
| FTGSQPTAERITQLSHPHCKKLSL [A16H] | 2.13 |
| FTGSQPTAERITQLSRPHCKKLSL [A16R] | 2.43 |
| FTGSQPTAERITQLSDPHCKKLSL [A16D] | 2.52 |
| FTGSQPTAERITQLSIPHCKKLSL [A16I] | 2.25 |
| FTGSQPTAERITQLSPPHCKKLSL [A16P] | 2.39 |
| FTGSQPTAERITQLSFPHCKKLSL [A16F] | 2.33 |
| FTGSQPTAERITQLSGPHCKKLSL [A16G] | 2.5 |
| FTGSQPTAERITQYSAPHCKKLSL [L14Y] | 2.39 |
| FTGSQPTAERITQLSAPCCKKLSL [H18C] | 1.94 |
| FTGSQPTAERITQLSAPTCKKLSL [H18T] | 2.31 |
| FTGSQPTAERITQLSAPLCKKLSL [H18L] | 2.46 |
| FTGSQPTAERITQLSAPNCKKLSL [H18N] | 2.11 |
| FTGSQPTAERITQLSAPQCKKLSL [H18Q] | 2.29 |
| FTGSQPTAERITQLSAPRCKKLSL [H18R] | 2.55 |
| FTGSQPTAERITQLSAPGCKKLSL [H18G] | 2.05 |
| FTGSQPTAERITQLSAPSCKKLSL [H18S] | 2.74 |
| FTGSQPTAERITQLSAPICKKLSL [H18I] | 2.55 |

| Variant | protein stability index |
| --- | --- |
| FTGSQPTAERITQLSAPYCKKLSL [H18Y] | 2.14 |
| FTGSQPTAERITQLSAPACKKLSL [H18A] | 2.05 |
| FTGSQPTAERITQLSAPFCKKLSL [H18F] | 2.25 |
| FTGSQPTAERITQLSAPECKKLSL [H18E] | 1.78 |
| FTGSQPTAERITQLSAPDCKKLSL [H18D] | 3.24 |
| FTGSQPTAERITQLSAPKCKKLSL [H18K] | 2.34 |
| FTGSQPTAERITQLSAPMCKKLSL [H18M] | 2.24 |
| FTGSQPTAERITQLSAPVCKKLSL [H18V] | 3 |
| FTGSQPTAERITQLSAPPCKKLSL [H18P] | 2.93 |
| FTGSQPTAERITQLSAPWCKKLSL [H18W] | 1.85 |
| FTGSQPTAERITQLSATHCKKLSL [P17T] | 2.24 |
| FTGSQPTAERITQLSAKHCKKLSL [P17K] | 2.12 |
| FTGSQPTAERITQLSAQHCKKLSL [P17Q] | 2.48 |
| FTGSQPTAERITQLSARHCKKLSL [P17R] | 2.49 |
| FTGSQPTAERITQLSACHCKKLSL [P17C] | 2.13 |
| FTGSQPTAERITQLSALHCKKLSL [P17L] | 1.78 |
| FTGSQPTAERITQLSAWHCKKLSL [P17W] | 2.46 |
| FTGSQPTAERITQLSAIHCKKLSL [P17I] | 2.38 |
| FTGSQPTAERITQLSAFHCKKLSL [P17F] | 1.85 |
| FTGSQPTAERITQLSAMHCKKLSL [P17M] | 2.04 |
| FTGSQPTAERITQLSANHCKKLSL [P17N] | 2.55 |
| FTGSQPTAERITQLSAVHCKKLSL [P17V] | 1.96 |
| FTGSQPTAERITQLSAYHCKKLSL [P17Y] | 2.05 |
| FTGSQPTAERITQLSAGHCKKLSL [P17G] | 2.25 |

| Variant | protein stability index |
| --- | --- |
| FTGSQPTAERITQLSAHHCKKLSL [P17H] | 2.34 |
| FTGSQPTAERITQLSADHCKKLSL [P17D] | 2.8 |
| FTGSQPTAERITQLSASHCKKLSL [P17S] | 2.18 |
| FTGSQPTAERITQLSAAHCKKLSL [P17A] | 2.49 |
| FTGSQPTAERITQLSAEHCKKLSL [P17E] | 2.77 |
| FTGSQPTAERITQLSAPHFKKLSL [C19F] | 2.91 |
| FTGSQPTAERITQLSAPHKKKLSL [C19K] | 2.75 |
| FTGSQPTAERITQLSAPHPKKLSL [C19P] | 2.06 |
| FTGSQPTAERITQLSAPHEKKLSL [C19E] | 2.79 |
| FTGSQPTAERITQLSAPHSKKLSL [C19S] | 1.96 |
| FTGSQPTAERITQLSAPHMKKLSL [C19M] | 1.96 |
| FTGSQPTAERITQLSAPHLKKLSL [C19L] | 1.91 |
| FTGSQPTAERITQLSAPHDKKLSL [C19D] | 2.73 |
| FTGSQPTAERITQLSAPHQKKLSL [C19Q] | 2.79 |
| FTGSQPTAERITQLSAPHAKKLSL [C19A] | 2.35 |
| FTGSQPTAERITQLSAPHNKKLSL [C19N] | 2.16 |
| FTGSQPTAERITQLSAPHIKKLSL [C19I] | 1.66 |
| FTGSQPTAERITQLSAPHGKKLSL [C19G] | 2.58 |
| FTGSQPTAERITQLSAPHRKKLSL [C19R] | 2.45 |
| FTGSQPTAERITQLSAPHHKKLSL [C19H] | 2.33 |
| FTGSQPTAERITQLSAPHVKKLSL [C19V] | 2.04 |
| FTGSQPTAERITQLSAPHTKKLSL [C19T] | 2.45 |

From the supplement of paper PMC10567573
